From patent US20220332804A1 (CSL INNOVATION, published 2022)
Substitutions are numbered along the chain they refer to.

Columns and labels:
Test in all cases: SPR, mAb captured, C2 mutant analyte;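 further: Anti-C2 mAbs captured on goat anti-human IgG Biacore CM5 chips, alanine or serine C2 surface mutants flowed over at 37 °C, double-referenced sensorgrams fitted to a 1:1 binding model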
human C2 L279A = target: T1, human C2 L279A (human, UniProt P06681 21-752)
T1 sequence: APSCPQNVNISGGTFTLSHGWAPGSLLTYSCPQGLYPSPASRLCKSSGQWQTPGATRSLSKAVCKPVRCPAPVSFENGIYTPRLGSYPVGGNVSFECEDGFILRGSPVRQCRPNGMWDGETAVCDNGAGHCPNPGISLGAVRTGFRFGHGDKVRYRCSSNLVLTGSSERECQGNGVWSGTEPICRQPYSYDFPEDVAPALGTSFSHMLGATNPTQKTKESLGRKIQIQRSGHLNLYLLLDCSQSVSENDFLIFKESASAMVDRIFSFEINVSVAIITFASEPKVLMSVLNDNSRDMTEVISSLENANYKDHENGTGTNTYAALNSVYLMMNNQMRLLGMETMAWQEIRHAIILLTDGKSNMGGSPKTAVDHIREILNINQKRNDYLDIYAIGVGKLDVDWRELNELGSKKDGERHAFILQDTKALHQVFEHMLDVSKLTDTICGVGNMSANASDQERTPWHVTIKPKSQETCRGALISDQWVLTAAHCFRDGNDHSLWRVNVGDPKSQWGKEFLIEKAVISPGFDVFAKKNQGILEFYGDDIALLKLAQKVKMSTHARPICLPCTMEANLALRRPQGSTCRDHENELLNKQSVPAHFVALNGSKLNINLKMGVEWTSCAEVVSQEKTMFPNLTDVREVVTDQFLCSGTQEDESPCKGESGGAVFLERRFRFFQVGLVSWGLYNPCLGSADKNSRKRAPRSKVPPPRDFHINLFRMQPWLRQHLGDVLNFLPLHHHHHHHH

human C2 T442A = target: T2, human C2 T442A (human, UniProt P06681 21-752)
T2 sequence: T1 sequence with A259L, T422A

human C2 G677A = target: T3, human C2 G677A (human, UniProt P06681 21-752)
T3 sequence: T1 sequence with A259L, G657A

human C2 R519A = target: T4, human C2 R519A (human, UniProt P06681 21-752)
T4 sequence: T1 sequence with A259L, R499A

Kd (human C2 L279A): 240 nM
Kd (human C2 T442A): 70.7 nM
Kd (human C2 G677A): 28.1 nM
Kd (human C2 R519A): 40 nM
B1: RF16-214 (antibody, V domains shown)
VH: EVQLLESGGGLVQPGGSLRLSCAASGFTFSWYQMMWVRQAPGKGLEWVSRIYPSGGGTAYADSVKGRFTISRDNSKNTLYLQMNSLRAEDTAVYYCARDAGYGDNWGQGTLVTVSS
VL: QSALTQPPSVSVSPGQTASITCSGDKLGEKYASWYQQKAGQSPVMVIYQDRKRPSGIPERFSGSNSGNTATLTISGTQAMDEADYYCQAWDTRAVVFGGGTKLTVLG
